Experimental data taken from US20220298218A1 (ANTAG THERAPEUTICS, published 2022).
*1 amine or outer side, *2 acyl side, *3 side chain or, on linkers, in order; H or OH if unused. Where no end group is shown, it is not given here. [ ]: non-standard residue; d: D form. The star is where a group is joined. C16 diacid = O=C(O)CCCCCCCCCCCCCCC(=O)*; γGlu = O=C(O)[C@H](CCC(=O)[*:2])N[*:1]; Nle = CCCC[C@H](N)C(=O)O; Aib = CC(C)(N)C(=O)O

T1: human GIP receptor (human, UniProt P48546 22-466)
T1 sequence (looked up): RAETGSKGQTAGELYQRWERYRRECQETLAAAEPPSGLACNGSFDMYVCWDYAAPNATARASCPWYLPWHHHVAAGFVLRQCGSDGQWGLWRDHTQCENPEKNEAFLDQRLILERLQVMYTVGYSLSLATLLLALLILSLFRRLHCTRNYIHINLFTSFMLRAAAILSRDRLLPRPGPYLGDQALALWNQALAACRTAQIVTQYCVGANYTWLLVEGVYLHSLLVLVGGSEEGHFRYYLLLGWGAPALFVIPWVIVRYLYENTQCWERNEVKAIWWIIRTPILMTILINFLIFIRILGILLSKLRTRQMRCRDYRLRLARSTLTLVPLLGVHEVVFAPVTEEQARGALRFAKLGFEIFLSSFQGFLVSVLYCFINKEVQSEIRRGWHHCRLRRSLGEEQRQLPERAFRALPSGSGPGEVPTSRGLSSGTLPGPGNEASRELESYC


Molecular target: T1, human GIP receptor
Assay: cell-based or functional assay

Binder | cAMP agonism % Emax [%] | cAMP antagonism [nM] | cAMP antagonism % inhib [%] | cAMP antagonism pIC50
EGTFISEYSI[Aib][Nle]EKIK(C16 diacid)QQEFVEWLLAQKPSSGAPPPS-OH (N-terminus assumed; SMILES CCCC[C@H](NC(=O)C(C)(C)NC(=O)[C@@H](NC(=O)[C@H](CO)NC(=O)[C@H](Cc1ccc(O)cc1)NC(=O)[C@H](CCC(=O)O)NC(=O)[C@H](CO)NC(=O)[C@@H](NC(=O)[C@H](Cc1ccccc1)NC(=O)[C@@H](NC(=O)CNC(=O)[C@@H](N)CCC(=O)O)[C@@H](C)O)[C@@H](C)CC)[C@@H](C)CC)C(=O)N[C@@H](CCC(=O)O)C(=O)N[C@@H](CCCCN)C(=O)N[C@H](C(=O)N[C@@H](CCCCNC(=O)CCCCCCCCCCCCCCC(=O)O)C(=O)N[C@@H](CCC(N)=O)C(=O)N[C@@H](CCC(N)=O)C(=O)N[C@@H](CCC(=O)O)C(=O)N[C@@H](Cc1ccccc1)C(=O)N[C@H](C(=O)N[C@@H](CCC(=O)O)C(=O)N[C@@H](Cc1c[nH]c2ccccc12)C(=O)N[C@@H](CC(C)C)C(=O)N[C@@H](CC(C)C)C(=O)N[C@@H](C)C(=O)N[C@@H](CCC(N)=O)C(=O)N[C@@H](CCCCN)C(=O)N1CCC[C@H]1C(=O)N[C@@H](CO)C(=O)N[C@@H](CO)C(=O)NCC(=O)N[C@@H](C)C(=O)N1CCC[C@H]1C(=O)N1CCC[C@H]1C(=O)N1CCC[C@H]1C(=O)N[C@@H](CO)C(=O)O)C(C)C)[C@@H](C)CC) [AT674] | 0 | 0.447 | 93 | 9.4
EGTFISDYSIAKDKIK(C16 diacid)QQDFVEWLLAQKPSSGAPPPS-OH (N-terminus assumed; SMILES CC[C@H](C)[C@H](NC(=O)[C@H](CO)NC(=O)[C@H](Cc1ccc(O)cc1)NC(=O)[C@H](CC(=O)O)NC(=O)[C@H](CO)NC(=O)[C@@H](NC(=O)[C@H](Cc1ccccc1)NC(=O)[C@@H](NC(=O)CNC(=O)[C@@H](N)CCC(=O)O)[C@@H](C)O)[C@@H](C)CC)C(=O)N[C@@H](C)C(=O)N[C@@H](CCCCN)C(=O)N[C@@H](CC(=O)O)C(=O)N[C@@H](CCCCN)C(=O)N[C@H](C(=O)N[C@@H](CCCCNC(=O)CCCCCCCCCCCCCCC(=O)O)C(=O)N[C@@H](CCC(N)=O)C(=O)N[C@@H](CCC(N)=O)C(=O)N[C@@H](CC(=O)O)C(=O)N[C@@H](Cc1ccccc1)C(=O)N[C@H](C(=O)N[C@@H](CCC(=O)O)C(=O)N[C@@H](Cc1c[nH]c2ccccc12)C(=O)N[C@@H](CC(C)C)C(=O)N[C@@H](CC(C)C)C(=O)N[C@@H](C)C(=O)N[C@@H](CCC(N)=O)C(=O)N[C@@H](CCCCN)C(=O)N1CCC[C@H]1C(=O)N[C@@H](CO)C(=O)N[C@@H](CO)C(=O)NCC(=O)N[C@@H](C)C(=O)N1CCC[C@H]1C(=O)N1CCC[C@H]1C(=O)N1CCC[C@H]1C(=O)N[C@@H](CO)C(=O)O)C(C)C)[C@@H](C)CC) [AT670] | 0 | 10 | 92 | 8
[γGlu]GTFISDYSIAMDKIK(C16 diacid)QQDFVNWLLAQKPSSGAPPPS-OH (N-terminus assumed; SMILES CC[C@H](C)[C@H](NC(=O)[C@H](CO)NC(=O)[C@H](Cc1ccc(O)cc1)NC(=O)[C@H](CC(=O)O)NC(=O)[C@H](CO)NC(=O)[C@@H](NC(=O)[C@H](Cc1ccccc1)NC(=O)[C@@H](NC(=O)CNC(=O)CC[C@H](N)C(=O)O)[C@@H](C)O)[C@@H](C)CC)C(=O)N[C@@H](C)C(=O)N[C@@H](CCSC)C(=O)N[C@@H](CC(=O)O)C(=O)N[C@@H](CCCCN)C(=O)N[C@H](C(=O)N[C@@H](CCCCNC(=O)CCCCCCCCCCCCCCC(=O)O)C(=O)N[C@@H](CCC(N)=O)C(=O)N[C@@H](CCC(N)=O)C(=O)N[C@@H](CC(=O)O)C(=O)N[C@@H](Cc1ccccc1)C(=O)N[C@H](C(=O)N[C@@H](CC(N)=O)C(=O)N[C@@H](Cc1c[nH]c2ccccc12)C(=O)N[C@@H](CC(C)C)C(=O)N[C@@H](CC(C)C)C(=O)N[C@@H](C)C(=O)N[C@@H](CCC(N)=O)C(=O)N[C@@H](CCCCN)C(=O)N1CCC[C@H]1C(=O)N[C@@H](CO)C(=O)N[C@@H](CO)C(=O)NCC(=O)N[C@@H](C)C(=O)N1CCC[C@H]1C(=O)N1CCC[C@H]1C(=O)N1CCC[C@H]1C(=O)N[C@@H](CO)C(=O)O)C(C)C)[C@@H](C)CC) [AT675] | 3 | 4.3 | 90 | 8.4
EGTFISEYSI[Aib]LEKIK(C16 diacid)QQEFVEWLLAQKPSSGAPPPS-OH (N-terminus assumed; SMILES CC[C@H](C)[C@H](NC(=O)[C@H](CCCCN)NC(=O)[C@H](CCC(=O)O)NC(=O)[C@H](CC(C)C)NC(=O)C(C)(C)NC(=O)[C@@H](NC(=O)[C@H](CO)NC(=O)[C@H](Cc1ccc(O)cc1)NC(=O)[C@H](CCC(=O)O)NC(=O)[C@H](CO)NC(=O)[C@@H](NC(=O)[C@H](Cc1ccccc1)NC(=O)[C@@H](NC(=O)CNC(=O)[C@@H](N)CCC(=O)O)[C@@H](C)O)[C@@H](C)CC)[C@@H](C)CC)C(=O)N[C@@H](CCCCNC(=O)CCCCCCCCCCCCCCC(=O)O)C(=O)N[C@@H](CCC(N)=O)C(=O)N[C@@H](CCC(N)=O)C(=O)N[C@@H](CCC(=O)O)C(=O)N[C@@H](Cc1ccccc1)C(=O)N[C@H](C(=O)N[C@@H](CCC(=O)O)C(=O)N[C@@H](Cc1c[nH]c2ccccc12)C(=O)N[C@@H](CC(C)C)C(=O)N[C@@H](CC(C)C)C(=O)N[C@@H](C)C(=O)N[C@@H](CCC(N)=O)C(=O)N[C@@H](CCCCN)C(=O)N1CCC[C@H]1C(=O)N[C@@H](CO)C(=O)N[C@@H](CO)C(=O)NCC(=O)N[C@@H](C)C(=O)N1CCC[C@H]1C(=O)N1CCC[C@H]1C(=O)N1CCC[C@H]1C(=O)N[C@@H](CO)C(=O)O)C(C)C) [AT673] | 0 | 0.136 | 94 | 9.9
[βGlu]GTFISDYSIAMDKIK(C16 diacid)QQDFVNWLLAQKPSSGAPPPS-OH [AT676] | 0 | 2.33 | 91 | 8.6
EGTFISDYSIALDKIK(C16 diacid)QQDFVEWLLAQKPSSGAPPPS-OH (N-terminus assumed; SMILES CC[C@H](C)[C@H](NC(=O)[C@H](CO)NC(=O)[C@H](Cc1ccc(O)cc1)NC(=O)[C@H](CC(=O)O)NC(=O)[C@H](CO)NC(=O)[C@@H](NC(=O)[C@H](Cc1ccccc1)NC(=O)[C@@H](NC(=O)CNC(=O)[C@@H](N)CCC(=O)O)[C@@H](C)O)[C@@H](C)CC)C(=O)N[C@@H](C)C(=O)N[C@@H](CC(C)C)C(=O)N[C@@H](CC(=O)O)C(=O)N[C@@H](CCCCN)C(=O)N[C@H](C(=O)N[C@@H](CCCCNC(=O)CCCCCCCCCCCCCCC(=O)O)C(=O)N[C@@H](CCC(N)=O)C(=O)N[C@@H](CCC(N)=O)C(=O)N[C@@H](CC(=O)O)C(=O)N[C@@H](Cc1ccccc1)C(=O)N[C@H](C(=O)N[C@@H](CCC(=O)O)C(=O)N[C@@H](Cc1c[nH]c2ccccc12)C(=O)N[C@@H](CC(C)C)C(=O)N[C@@H](CC(C)C)C(=O)N[C@@H](C)C(=O)N[C@@H](CCC(N)=O)C(=O)N[C@@H](CCCCN)C(=O)N1CCC[C@H]1C(=O)N[C@@H](CO)C(=O)N[C@@H](CO)C(=O)NCC(=O)N[C@@H](C)C(=O)N1CCC[C@H]1C(=O)N1CCC[C@H]1C(=O)N1CCC[C@H]1C(=O)N[C@@H](CO)C(=O)O)C(C)C)[C@@H](C)CC) [AT668] | 0 | 0.944 | 92 | 9
EGTFISDYSIA[Nle]DKIK(C16 diacid)QQDFVEWLLAQKPSSGAPPPS-OH (N-terminus assumed; SMILES CCCC[C@H](NC(=O)[C@H](C)NC(=O)[C@@H](NC(=O)[C@H](CO)NC(=O)[C@H](Cc1ccc(O)cc1)NC(=O)[C@H](CC(=O)O)NC(=O)[C@H](CO)NC(=O)[C@@H](NC(=O)[C@H](Cc1ccccc1)NC(=O)[C@@H](NC(=O)CNC(=O)[C@@H](N)CCC(=O)O)[C@@H](C)O)[C@@H](C)CC)[C@@H](C)CC)C(=O)N[C@@H](CC(=O)O)C(=O)N[C@@H](CCCCN)C(=O)N[C@H](C(=O)N[C@@H](CCCCNC(=O)CCCCCCCCCCCCCCC(=O)O)C(=O)N[C@@H](CCC(N)=O)C(=O)N[C@@H](CCC(N)=O)C(=O)N[C@@H](CC(=O)O)C(=O)N[C@@H](Cc1ccccc1)C(=O)N[C@H](C(=O)N[C@@H](CCC(=O)O)C(=O)N[C@@H](Cc1c[nH]c2ccccc12)C(=O)N[C@@H](CC(C)C)C(=O)N[C@@H](CC(C)C)C(=O)N[C@@H](C)C(=O)N[C@@H](CCC(N)=O)C(=O)N[C@@H](CCCCN)C(=O)N1CCC[C@H]1C(=O)N[C@@H](CO)C(=O)N[C@@H](CO)C(=O)NCC(=O)N[C@@H](C)C(=O)N1CCC[C@H]1C(=O)N1CCC[C@H]1C(=O)N1CCC[C@H]1C(=O)N[C@@H](CO)C(=O)O)C(C)C)[C@@H](C)CC) [AT669] | 0 | 3.35 | 95 | 8.5
